The supplement of paper PMC9112550, “Optimization of the antimicrobial peptide Bac7 by deep mutational scanning” (BMC Biology, 2022)

test system: Escherichia coli TOP10; assay: shrunken log2 fold change of peptide-encoding DNA abundance (4.5 h post-induction vs induction); higher = less antimicrobial activity (less host growth inhibition); conditions: time post-induction: 4.5 h; library: site-saturation at positions 5, 18, 19, 20
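Note: peptides expressed intracellularly from a pBAD plasmid library in pooled LB shake-flask culture, induced with 0.3% L-arabinose, DNA abundance read by NGS, three biological replicates, DESeq2 with apeglm shrinkage.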

First: RRIRKRPPRLPRPRPRPYDYPRP
Second: RRIRARPPRLPRPRPRPKQSPRP
The “shrunken log2 fold change” value of the first is lower: -0.0386 for the first, 0.608 for the second.

RRIRYRPPRLPRPRPRPINTPRP and RRIRIRPPRLPRPRPRPNMMPRP are within 0.2 log units of each other in “shrunken log2 fold change” value: -0.274 for the first, -0.298 for the second.

First: RRIRGRPPRLPRPRPRPMCKPRP
Second: RRIRERPPRLPRPRPRPAALPRP
The “shrunken log2 fold change” value of the first is higher: 0.886 for the first, -0.0784 for the second.

RRIRNRPPRLPRPRPRPVSHPRP and RRIRCRPPRLPRPRPRPYHVPRP are within 0.2 log units of each other in “shrunken log2 fold change” value: -0.0709 for the first, -0.0591 for the second.

RRIRTRPPRLPRPRPRPTSYPRP and RRIRPRPPRLPRPRPRPKGKPRP are within 0.2 log units of each other in “shrunken log2 fold change” value: -0.268 for the first, -0.135 for the second.

RRIRVRPPRLPRPRPRPFCSPRP and RRIRPRPPRLPRPRPRPQSQPRP are within 0.2 log units of each other in “shrunken log2 fold change” value: 0.0261 for the first, -0.00349 for the second.

RRIRCRPPRLPRPRPRPIFVPRP and RRIRSRPPRLPRPRPRPFHRPRP are within 0.2 log units of each other in “shrunken log2 fold change” value: -0.284 for the first, -0.154 for the second.

RRIRGRPPRLPRPRPRPRPFPRP and RRIRARPPRLPRPRPRPLAEPRP are within 0.2 log units of each other in “shrunken log2 fold change” value: 0.889 for the first, 0.976 for the second.

Compared with RRIRERPPRLPRPRPRPYHHPRP, RRIRNRPPRLPRPRPRPRQQPRP is higher in “shrunken log2 fold change” value: -1.56 for the first, 0.365 for the second.

First: RRIRSRPPRLPRPRPRPPTCPRP
Second: RRIRSRPPRLPRPRPRPECWPRP
The “shrunken log2 fold change” value of the first is lower: 0.155 for the first, 1.03 for the second.

RRIRHRPPRLPRPRPRPTTEPRP and RRIRKRPPRLPRPRPRPSIDPRP are within 0.2 log units of each other in “shrunken log2 fold change” value: -0.0115 for the first, 0.175 for the second.

First: RRIRGRPPRLPRPRPRPSWDPRP
Second: RRIRVRPPRLPRPRPRPNIWPRP
The “shrunken log2 fold change” value of the first is higher: 0.496 for the first, -0.13 for the second.

Compared with RRIRARPPRLPRPRPRPEDFPRP, RRIRHRPPRLPRPRPRPQFFPRP is lower in “shrunken log2 fold change” value: 1.11 for the first, -0.619 for the second.

Going from RRIRQRPPRLPRPRPRPFLNPRP to RRIRVRPPRLPRPRPRPHELPRP, the “shrunken log2 fold change” value rises from -0.118 to 0.118.

Going from RRIRQRPPRLPRPRPRPRFKPRP to RRIRARPPRLPRPRPRPCANPRP, the “shrunken log2 fold change” value rises from -0.128 to 0.102.

RRIRDRPPRLPRPRPRPAAYPRP and RRIRFRPPRLPRPRPRPWDWPRP are within 0.2 log units of each other in “shrunken log2 fold change” value: 0.174 for the first, 0.149 for the second.

RRIRKRPPRLPRPRPRPWVHPRP and RRIRKRPPRLPRPRPRPVHIPRP are within 0.2 log units of each other in “shrunken log2 fold change” value: -0.0825 for the first, -0.021 for the second.

Compared with RRIRGRPPRLPRPRPRPVICPRP, RRIRNRPPRLPRPRPRPKISPRP is lower in “shrunken log2 fold change” value: 0.252 for the first, -0.484 for the second.

Compared with RRIRPRPPRLPRPRPRPHPGPRP, RRIRWRPPRLPRPRPRPQFSPRP is lower in “shrunken log2 fold change” value: 2.42 for the first, 0.053 for the second.

First: RRIRYRPPRLPRPRPRPFKDPRP
Second: RRIRERPPRLPRPRPRPYILPRP
The “shrunken log2 fold change” value of the first is higher: -0.0864 for the first, -2.27 for the second.

Compared with RRIRIRPPRLPRPRPRPWTDPRP, RRIRLRPPRLPRPRPRPVWNPRP is higher in “shrunken log2 fold change” value: -0.111 for the first, 0.2 for the second.

First: RRIRARPPRLPRPRPRPMHKPRP
Second: RRIRVRPPRLPRPRPRPHMNPRP
The “shrunken log2 fold change” value of the first is higher: 0.221 for the first, -0.499 for the second.

RRIRARPPRLPRPRPRPHMAPRP and RRIRARPPRLPRPRPRPHQGPRP are within 0.2 log units of each other in “shrunken log2 fold change” value: -0.183 for the first, -0.0611 for the second.

RRIRYRPPRLPRPRPRPITYPRP and RRIRFRPPRLPRPRPRPYHIPRP are within 0.2 log units of each other in “shrunken log2 fold change” value: -0.0505 for the first, -0.081 for the second.

Compared with RRIRERPPRLPRPRPRPLWEPRP, RRIRCRPPRLPRPRPRPGLEPRP is higher in “shrunken log2 fold change” value: -0.281 for the first, 0.203 for the second.

RRIRTRPPRLPRPRPRPMIEPRP and RRIRTRPPRLPRPRPRPKYPPRP are within 0.2 log units of each other in “shrunken log2 fold change” value: -0.244 for the first, -0.252 for the second.

First: RRIRSRPPRLPRPRPRPEPRPRP
Second: RRIRSRPPRLPRPRPRPGRMPRP
The “shrunken log2 fold change” value of the first is higher: 0.586 for the first, 0.167 for the second.

RRIRPRPPRLPRPRPRPQEQPRP and RRIRTRPPRLPRPRPRPWVMPRP are within 0.2 log units of each other in “shrunken log2 fold change” value: -0.0215 for the first, -0.125 for the second.

RRIRARPPRLPRPRPRPQEKPRP and RRIRFRPPRLPRPRPRPFENPRP are within 0.2 log units of each other in “shrunken log2 fold change” value: -0.0334 for the first, -0.0822 for the second.

Going from RRIRRRPPRLPRPRPRPFSRPRP to RRIRPRPPRLPRPRPRPKTFPRP, the “shrunken log2 fold change” value falls from 0.18 to -0.322.

RRIRYRPPRLPRPRPRPIQKPRP and RRIRERPPRLPRPRPRPFENPRP are within 0.2 log units of each other in “shrunken log2 fold change” value: -0.00992 for the first, -0.01 for the second.

RRIRLRPPRLPRPRPRPDWTPRP and RRIRPRPPRLPRPRPRPDIYPRP are within 0.2 log units of each other in “shrunken log2 fold change” value: 0.000807 for the first, -0.0306 for the second.

Compared with RRIRQRPPRLPRPRPRPFHIPRP, RRIRHRPPRLPRPRPRPRDRPRP is higher in “shrunken log2 fold change” value: -1.55 for the first, 0.0898 for the second.

Going from RRIRTRPPRLPRPRPRPKVCPRP to RRIRKRPPRLPRPRPRPKRSPRP, the “shrunken log2 fold change” value rises from -0.00594 to 0.667.

First: RRIRVRPPRLPRPRPRPYKHPRP
Second: RRIRPRPPRLPRPRPRPFELPRP
The “shrunken log2 fold change” value of the first is lower: -0.81 for the first, -0.284 for the second.

RRIRARPPRLPRPRPRPWKKPRP and RRIRDRPPRLPRPRPRPIYRPRP are within 0.2 log units of each other in “shrunken log2 fold change” value: -0.0663 for the first, -0.175 for the second.

RRIRKRPPRLPRPRPRPRYAPRP and RRIRPRPPRLPRPRPRPVFTPRP are within 0.2 log units of each other in “shrunken log2 fold change” value: -0.129 for the first, -0.0534 for the second.

RRIRKRPPRLPRPRPRPACYPRP and RRIRRRPPRLPRPRPRPLFMPRP are within 0.2 log units of each other in “shrunken log2 fold change” value: 0.13 for the first, 0.0797 for the second.

First: RRIRTRPPRLPRPRPRPPGDPRP
Second: RRIRMRPPRLPRPRPRPTQTPRP
The “shrunken log2 fold change” value of the first is lower: 0.189 for the first, 2.06 for the second.

Going from RRIRSRPPRLPRPRPRPDLEPRP to RRIRVRPPRLPRPRPRPKREPRP, the “shrunken log2 fold change” value rises from -0.0903 to 0.225.

Compared with RRIRNRPPRLPRPRPRPVNIPRP, RRIRYRPPRLPRPRPRPPPMPRP is higher in “shrunken log2 fold change” value: -0.435 for the first, 0.46 for the second.

Going from RRIRNRPPRLPRPRPRPGQCPRP to RRIRWRPPRLPRPRPRPARVPRP, the “shrunken log2 fold change” value rises from 0.0172 to 0.413.

RRIRNRPPRLPRPRPRPVKCPRP and RRIRERPPRLPRPRPRPPSPPRP are within 0.2 log units of each other in “shrunken log2 fold change” value: 0.0182 for the first, -0.0326 for the second.

Compared with RRIRSRPPRLPRPRPRPEFYPRP, RRIRIRPPRLPRPRPRPVAAPRP is higher in “shrunken log2 fold change” value: -0.131 for the first, 0.176 for the second.

RRIRSRPPRLPRPRPRPNPLPRP and RRIRARPPRLPRPRPRPRCLPRP are within 0.2 log units of each other in “shrunken log2 fold change” value: 0.182 for the first, 0.157 for the second.

Going from RRIRIRPPRLPRPRPRPRFSPRP to RRIRTRPPRLPRPRPRPTLTPRP, the “shrunken log2 fold change” value rises from -0.231 to 0.0461.

RRIRFRPPRLPRPRPRPNDLPRP and RRIRPRPPRLPRPRPRPGNQPRP are within 0.2 log units of each other in “shrunken log2 fold change” value: 0.00528 for the first, -0.143 for the second.

Going from RRIRYRPPRLPRPRPRPQYSPRP to RRIRDRPPRLPRPRPRPGINPRP, the “shrunken log2 fold change” value rises from -1.71 to 0.0194.

RRIRTRPPRLPRPRPRPQCSPRP and RRIRWRPPRLPRPRPRPWKMPRP are within 0.2 log units of each other in “shrunken log2 fold change” value: 0.0299 for the first, -0.0467 for the second.

RRIRYRPPRLPRPRPRPACPPRP and RRIRCRPPRLPRPRPRPRGTPRP are within 0.2 log units of each other in “shrunken log2 fold change” value: -0.0352 for the first, 0.0528 for the second.

RRIRSRPPRLPRPRPRPAREPRP and RRIRVRPPRLPRPRPRPVWTPRP are within 0.2 log units of each other in “shrunken log2 fold change” value: 0.0982 for the first, 0.155 for the second.

RRIRARPPRLPRPRPRPHEQPRP and RRIRRRPPRLPRPRPRPMFQPRP are within 0.2 log units of each other in “shrunken log2 fold change” value: 0.257 for the first, 0.155 for the second.

Going from RRIRNRPPRLPRPRPRPPNAPRP to RRIRFRPPRLPRPRPRPSNSPRP, the “shrunken log2 fold change” value falls from 0.313 to -0.723.

RRIRPRPPRLPRPRPRPAKDPRP and RRIRLRPPRLPRPRPRPVYAPRP are within 0.2 log units of each other in “shrunken log2 fold change” value: -0.111 for the first, 0.00563 for the second.

Compared with RRIRRRPPRLPRPRPRPGEVPRP, RRIRCRPPRLPRPRPRPHHGPRP is lower in “shrunken log2 fold change” value: 1.28 for the first, -0.261 for the second.

Compared with RRIRNRPPRLPRPRPRPMCAPRP, RRIRPRPPRLPRPRPRPEMWPRP is higher in “shrunken log2 fold change” value: -0.253 for the first, 0.579 for the second.

Compared with RRIRQRPPRLPRPRPRPYKLPRP, RRIRSRPPRLPRPRPRPGCDPRP is higher in “shrunken log2 fold change” value: -0.603 for the first, 0.332 for the second.

First: RRIRVRPPRLPRPRPRPHLKPRP
Second: RRIRDRPPRLPRPRPRPATIPRP
The “shrunken log2 fold change” value of the first is lower: -0.284 for the first, 0.0807 for the second.

Going from RRIRYRPPRLPRPRPRPIHAPRP to RRIRCRPPRLPRPRPRPFELPRP, the “shrunken log2 fold change” value rises from -1.49 to -0.0697.

Compared with RRIRSRPPRLPRPRPRPVHKPRP, RRIRERPPRLPRPRPRPGLRPRP is higher in “shrunken log2 fold change” value: -0.151 for the first, 0.0748 for the second.

Compared with RRIRWRPPRLPRPRPRPAWSPRP, RRIRFRPPRLPRPRPRPEEKPRP is lower in “shrunken log2 fold change” value: 0.265 for the first, -0.0254 for the second.

Going from RRIRKRPPRLPRPRPRPEEGPRP to RRIRVRPPRLPRPRPRPWMLPRP, the “shrunken log2 fold change” value falls from 0.0325 to -0.2.

With RRIRDRPPRLPRPRPRPAIRPRP the “shrunken log2 fold change” value was 0.53.
